Experimental data published in patent publication US12077763B2, “RNA-based control of powdery mildew” (Greenlight Biosciences, Inc., priority 2021, dated 2024).

B1: GS3930 (nucleic acid)
sense: CUAACGAGUGAUCGAAGCCCAUCUGAAAGAUUUUGAGUUAUGCUUUUACCAACUAUUACAGUAUCUGAGCUCAGUCGCGAGAGUAAAUCCCCGACUCGAUUGGCGUCAAAGAACUCGGCAUCUUGUACAAAUGUCCUUCGAAAUAAUUUUGAUCGGAGUCUUGAAAUUACUCUUUCUCCAACUAUUCUCAGAAUUAAUAUCCGUCCAUAAUUAGCUACAGCACCUAUUGAUAGUAUAAGCCCAAGAGCCCCGAAAAAUUGUUGAUUAUUAAGUUCAAAAAGUGUGUUUCCUUCUGAGUUUUUGGUUGCAAGGUCUAAUAUUUUACCGAUUGAAAAAGGAAUUGCCAUUGAUAUGGAUGAAGAUACUAAUAAAAAGAAAAAUGCCAAACUGAGC
antisense: GCUCAGUUUGGCAUUUUUCUUUUUAUUAGUAUCUUCAUCCAUAUCAAUGGCAAUUCCUUUUUCAAUCGGUAAAAUAUUAGACCUUGCAACCAAAAACUCAGAAGGAAACACACUUUUUGAACUUAAUAAUCAACAAUUUUUCGGGGCUCUUGGGCUUAUACUAUCAAUAGGUGCUGUAGCUAAUUAUGGACGGAUAUUAAUUCUGAGAAUAGUUGGAGAAAGAGUAAUUUCAAGACUCCGAUCAAAAUUAUUUCGAAGGACAUUUGUACAAGAUGCCGAGUUCUUUGACGCCAAUCGAGUCGGGGAUUUACUCUCGCGACUGAGCUCAGAUACUGUAAUAGUUGGUAAAAGCAUAACUCAAAAUCUUUCAGAUGGGCUUCGAUCACUCGUUAG
B2: GS3927 (nucleic acid)
sense: CUGAAUCAGAUGAUGGGGGUAAUGAACGUAUGAUAAAUAGUAAGAAACCGCGAAGUACAUGCUCGAAGACCCUAAGGGAAAAAGAUUUGAAAGAUGAUAAAGAAAAGUCCAGAUCUGAUGCUGUAGCUAAAAGAAAUGGUCGUACAGAGCGGAGAAGAACUGAAGAUCAAGAAACACAGAAGGAAUUGUCAAUUGGUACUAAAAAUACAAUGUGCAAUAGCACAGACUCUUCUAAAGUCUCUACAACGAUUGAAUCUCUUGAGUCUCCGACAUUAUCAAAUGGUAGAGUUUCAGACAAUUCAUCUAACAACCAAUUUCCAAUACCUUUAAAAAAAAGCUACCGUAAUUCAAAUUCUAGGAAAGGGAAAUUAGCCAAAAAUAAUUUCACAAGGGAAU
antisense: AUUCCCUUGUGAAAUUAUUUUUGGCUAAUUUCCCUUUCCUAGAAUUUGAAUUACGGUAGCUUUUUUUUAAAGGUAUUGGAAAUUGGUUGUUAGAUGAAUUGUCUGAAACUCUACCAUUUGAUAAUGUCGGAGACUCAAGAGAUUCAAUCGUUGUAGAGACUUUAGAAGAGUCUGUGCUAUUGCACAUUGUAUUUUUAGUACCAAUUGACAAUUCCUUCUGUGUUUCUUGAUCUUCAGUUCUUCUCCGCUCUGUACGACCAUUUCUUUUAGCUACAGCAUCAGAUCUGGACUUUUCUUUAUCAUCUUUCAAAUCUUUUUCCCUUAGGGUCUUCGAGCAUGUACUUCGCGGUUUCUUACUAUUUAUCAUACGUUCAUUACCCCCAUCAUCUGAUUCAG
B3: GS3928 (nucleic acid)
sense: UUGAAGUGGUUAAAAAACAUGUUGAGGAAACAGAAUGGGAAGAAGAACCUUCCAAGAAUGGAAGACUUGAUAUUGAUAUAAUAACCGCGGAAGCAAUGACACUUGCUCAUCAAAUUGCAAGUGGUGAGAAGACUAAAUAUGAUCUCAUCGAUGAAGGUUGGAAUAAAAAUUCAUUCAAGGAUCGCGAUGGCCUUCCUGAUUGGUUUCUGGAUGAUGAGAGUAAACAUGAUAAACCUCAUAGACCUAUCAGUGCUGCCGCUGCAAAUGCUAUAAAAGAAAAGCUGCGAGCCCUGAAUGCUCGACCAAUCAAAAAAGUACGUGAGGCUAAGAGUCGGAAAAAAUUCAAAGCUGCCCAACGACUUGAAAAACUCCGAAAAAAAU
antisense: AUUUUUUUCGGAGUUUUUCAAGUCGUUGGGCAGCUUUGAAUUUUUUCCGACUCUUAGCCUCACGUACUUUUUUGAUUGGUCGAGCAUUCAGGGCUCGCAGCUUUUCUUUUAUAGCAUUUGCAGCGGCAGCACUGAUAGGUCUAUGAGGUUUAUCAUGUUUACUCUCAUCAUCCAGAAACCAAUCAGGAAGGCCAUCGCGAUCCUUGAAUGAAUUUUUAUUCCAACCUUCAUCGAUGAGAUCAUAUUUAGUCUUCUCACCACUUGCAAUUUGAUGAGCAAGUGUCAUUGCUUCCGCGGUUAUUAUAUCAAUAUCAAGUCUUCCAUUCUUGGAAGGUUCUUCUUCCCAUUCUGUUUCCUCAACAUGUUUUUUAACCACUUCAA
B4: GS3925 (nucleic acid)
sense: UUUGAAAAACACACAACCCCAGAAGAAUACGAUAGCAUAUCAUUGGCCAAGCACCCUCAGUUGCAUGUUGAGGAUGAUUCAUGGCAUAGAGCAACUGGUACUUGUAAGUGUAAUAACUGUUAAUGAAGUAUAUAAUCCCAAAAAAUAGAACCAUAUAACCAGCCGGUAGAAUUGAGUAUACAAUACACAAAAUGUAUACAAGGAUUGCAGAGGGUAGAUAAAACCCGUAUUUGAAGACAGGAGGCUGUGUAAGCUCCCAGCGAUCCCUAGGGCUUUUUGAAUACAUACGCAUAAUUGGAUAUAGAGACACACUGCCAAACUCUAAGAGCCUUAAUGGUAUGAAACCAA
antisense: UUGGUUUCAUACCAUUAAGGCUCUUAGAGUUUGGCAGUGUGUCUCUAUAUCCAAUUAUGCGUAUGUAUUCAAAAAGCCCUAGGGAUCGCUGGGAGCUUACACAGCCUCCUGUCUUCAAAUACGGGUUUUAUCUACCCUCUGCAAUCCUUGUAUACAUUUUGUGUAUUGUAUACUCAAUUCUACCGGCUGGUUAUAUGGUUCUAUUUUUUGGGAUUAUAUACUUCAUUAACAGUUAUUACACUUACAAGUACCAGUUGCUCUAUGCCAUGAAUCAUCCUCAACAUGCAACUGAGGGUGCUUGGCCAAUGAUAUGCUAUCGUAUUCUUCUGGGGUUGUGUGUUUUUCAAA
B5: GS3929 (nucleic acid)
sense: AUUGUUGAUAAGUUCACUGGAAAUCUCCGUUAUAGGAUCUAUUCCUUCAUUUUGUUUCCGGAGUUUUUCUUCUUGUCGAGCACUCAUUUUGGUAGAGAAUGCCCAACAUGAAAGGCCCAAUUCGCGACAUACUAUGCACACAUCUAGACGAGGCGCAGUUUUGUCUUUCGUUAUCGCAAUUCCAAUGCAACGACGACAUUGUAAGACAAAAUUCUCAUGACCAAUUUUAGUAACCAAGUGAUCUCUGUUACUUCGAGGACCAAGACAAUUUUUGUGGAUUGAAGUUGAGCAUCCUUGACAGUAAAUAAGUUGGCUUGGGCCCUUGUUCGAAUUUCUCUCAUUUCCAAAGCAAACAUCACAAAAUUUAUUAUGAAAACUUCGAAAUAAAUUUU
antisense: AAAAUUUAUUUCGAAGUUUUCAUAAUAAAUUUUGUGAUGUUUGCUUUGGAAAUGAGAGAAAUUCGAACAAGGGCCCAAGCCAACUUAUUUACUGUCAAGGAUGCUCAACUUCAAUCCACAAAAAUUGUCUUGGUCCUCGAAGUAACAGAGAUCACUUGGUUACUAAAAUUGGUCAUGAGAAUUUUGUCUUACAAUGUCGUCGUUGCAUUGGAAUUGCGAUAACGAAAGACAAAACUGCGCCUCGUCUAGAUGUGUGCAUAGUAUGUCGCGAAUUGGGCCUUUCAUGUUGGGCAUUCUCUACCAAAAUGAGUGCUCGACAAGAAGAAAAACUCCGGAAACAAAAUGAAGGAAUAGAUCCUAUAACGGAGAUUUCCAGUGAACUUAUCAACAAU
B6: GS3931 (nucleic acid)
sense: AUCAAUUUUUCAUUCUCCCUAAUAGAUUUGAUAUCCCGUUCUUUGAGAUAACUUAAUUCCUCUUUUAUGUCUUUUAGCUUUUUUUCUGCAGUCGCAAUUAGAGUCUCUUUUUCAGCAAUUUGAUCUUGAAGCUCAUUUUCUCUUUUUAAAAACUCUUCACGAUCAUCUUUUUCUAAUGCAAUUGGCGUAGAUGAGCGAUCUAAUAACGUUGAAGCUUCCGAUCUAGAUUCUACCUGCAGCCUAGAAGGAGUUGCAGGUCUUGGUGUUUUUAUUUUAGAAAGAUUAGCAGUAUCUAAAGGUGGUACCCAUUUUUCUUUAGGCACACUAUCUCCAGACCUCCACUGCUGAACUUCUGCAUCAAGUGUCUGUACAUAUUGUUCAAAUGUAGUAA
antisense: UUACUACAUUUGAACAAUAUGUACAGACACUUGAUGCAGAAGUUCAGCAGUGGAGGUCUGGAGAUAGUGUGCCUAAAGAAAAAUGGGUACCACCUUUAGAUACUGCUAAUCUUUCUAAAAUAAAAACACCAAGACCUGCAACUCCUUCUAGGCUGCAGGUAGAAUCUAGAUCGGAAGCUUCAACGUUAUUAGAUCGCUCAUCUACGCCAAUUGCAUUAGAAAAAGAUGAUCGUGAAGAGUUUUUAAAAAGAGAAAAUGAGCUUCAAGAUCAAAUUGCUGAAAAAGAGACUCUAAUUGCGACUGCAGAAAAAAAGCUAAAAGACAUAAAAGAGGAAUUAAGUUAUCUCAAAGAACGGGAUAUCAAAUCUAUUAGGGAGAAUGAAAAAUUGAU
B7: GS1816: dsRNA trigger SEQ ID NO 174; gene target Plasma membrane ATPase (nucleic acid)
DNA: CAACCACTGAGACTTGTTCAATACATGATACACAATAGCAATCACTATCGTGACAGCAATAGAATAGCCCCAGACAACAATAATAGTGACAATGGAGGTTCTTCCGTCAGTAGATAAAAGGGAGTTTAATGTGGCAGGATCTGAAGGCTCACCAGCACCGCCAGTTAACCAACCAAAGAGACAGAAGAGAGTTGCAAGTACATCAACACCGAATATAGCAGCAACGAGTGCAAATGCAGGATAAGTCTCATCTCCTCTGGTGACAAAGATGAGCCAGTTTTCGGTGAGAGAAATTTGAAGGAATAACATTCCCTGGATAGATCCAAAGTTATCAATCATGCCACCATTAGGTAAGAAAAGCGAGCCACGTAATACCCATGTTCCAAGAGCAAGCAATATGCCAAGAACAACAGAGATAATCCAGATTTTAGGTAATTGCCACTCAACAGGTCGAATCTCAAAGTGAGCGTTGTCGTATGCAACTGCAATTGTGGCTAAATCGGCAAAAAGTGCAAGGAAGACAATTAAATCAACCCGGACAGTTTCGTTAATAATGATCATAGAGGTTACAAGATAGATTTCTAAGTGTAAACATAA

Tested on: E. necator
Test: Leaf disc assay, dry inoculum (settling tower), decrease in disease severity / hyphal growth (Example 2)
Conditions: decrease in disease severity (hyphal growth) relative to untreated control, value ± SE; for % decrease =/− SE TP1: time point 1 (untreated control hyphal growth ≥50%); for % decrease =/− SE TP2: time point 2

Molecule | % decrease =/− SE TP1 | % decrease =/− SE TP2
B1 | 10 ± 4% | –
B2 | 7 ± 3% | –
B3 | 15 ± 6% | 9 ± 7%
B4 | 18 ± 4% | 3 ± 6%
B5 | – | 19 ± 7%
B6 | 14 ± 4% | –
B7 | 61 ± 2% | 50 ± 7%
